This note sets out measurements from patent publication US9150649B2, “Potent conjugates and hydrophilic linkers” (priority 2008, dated 2015).

The conditions of the data set: mouse, in vivo, iv, 12 mg/kg.

Protocol: CD1 mice were injected intravenously, by a single bolus, of 5 mg/kg conjugates (antibody-based dose; 3 mice per group). Plasma samples were collected at several time points up to 4 weeks. The plasma samples were analyzed for antibody concentration and for conjugate concentration using ELISA. For antibody ELISA, the plasma samples were added to microtiter plates containing coated, immobilized goat-anti-human IgG (H+L) antibody, washed, and detected using horseradish peroxidase-conjugated goat-anti-human IgG (Fe) antibody. For conjugate concentration, the plasma samples were added to microtiter plates containing coated, immobilized goat-anti-human IgG (H+L) antibody, washed, and detected using biotinylated anti-maytansine antibody and alkaline phosphatase-conjugated streptavidin.

B1: unconjugated antibody: unconjugated humanized C242 antibody, binds the CanAg antigen (antibody, chains of the INN, looked up, V domains shown)
VH: QVQLVQSGAEVKKPGETVKISCKASDYTFTYYGMNWVKQAPGQGLKWMGWIDTTTGEPTYAQKFQGRIAFSLETSASTAYLQIKSLKSEDTATYFCARRGPYNWYFDVWGQGTTVTVSS
VL: DIVMTQSPLSVPVTPGEPVSISCRSSKSLLHSNGNTYLYWFLQRPGQSPQLLIYRMSNLVSGVPDRFSGSGSGTAFTLRISRVEAEDVGVYYCLQHLEYPFTFGPGTKLELK
As to B1, the “area under the curve (AUC)” value worked out at 38798 µg·h/mL.
